Results from patent US20240124575A1 (SIMCERE ZAIMING PHARMACEUTICAL, published 2024).

B1: C33B904 hIgG1 (antibody, V domains shown)
VH: EVQLVESGGGLVQPGRSLRLSCAASGFTFDDYAMHWVRQAPGKGLEWVSGIGWSGGSIVYADSVKGRFTISRDNAKNSLYLQMNSLRAEDTALYYCAKDSPYGDFFDYWGQGTLVTVSS
VL: DIVMTQSPDSLAVSLGERATINCKSSQTVFYSSNNKNYLAWYQQKPGQPPKLLISWASTRKSGVPDRFSGSGSGTDFTLTVSSLQAEDVAVYYCQHYYSTPYTFGQGTKLEIKR
notes: intact human IgG1; variable regions from US20190382481A1; also called C33B3904; C331B904
B2: C33B904 (antibody, human IgG1, kappa, V domains shown)
VH: B1 VH
VL: B1 VL
notes: control antibody, intact human IgG1 form; variable regions from US20190382481A1; also called C33B904 hIgG1; C331B904

Legend:
monkey CD33-His protein = target: T1, monkey CD33-His protein (monkey); experiment: ELISA on coated monkey CD33-his
T1 construct: also called monkey CD33 protein

human CD33-C2-his = target: T2, human CD33-C2-his (human, UniProt P20138 136-260); experiment: ELISA on coated human CD33-C2-his
T2 construct: expressed in HEK293E; also called hCD33-C2-his; human CD33 protein C2-domain; not shown: His tag
From the text: Plates were coated with human CD33-V-his (membrane distal end) and human CD33-C2-his (membrane proximal end), respectively, according to the ELISA method in Example 8. The VHH humanized antibodies were classified based on the membrane distal end and the membrane proximal end, as shown in FIGS. 20A-20J and Table 44, which allowed the classification of the VHH humanized antibodies into the following classes: […]

[1] = target: T3, human CD33-His (extracellular domain Asp 18-His 259) (human, UniProt P20138 18-259); experiment: competitive ELISA vs coated SGN-33 2ug/mL; soluble 25ug/ml
T3 construct: range 18-259; bought protein; also called hCD33-his; human CD33 protein; not shown: His tag
Method: (§1) VHH antibodies and control antibodies with known epitopes were subjected to epitope classification with competitive ELISA. ELISA plates were coated with 2 μg/mL antibodies according to the method in Example 5.1; the human CD33-his protein was subjected to a gradient dilution from 30 μg/mL, and EC80 values (Tables 26-27) were calculated. ELISA plates were coated with 2 μg/mL antibodies; after 25 µg/mL of antibodies to be tested were added, a human CD33-his protein having an EC80 concentration corresponding to each of the antibodies to be tested was then added for incubation for 2 h. The plates were washed 5 times with PBS, then HRP-labeled anti-His antibodies (purchased from GenScript, Cat. No. A00612) were added for incubation for 1 h, and the plates were washed 5 times. A TMB substrate was added at 50 μL/well and incubated at room temperature for 10 min, then a stop solution (1.0 M HCl) was added at 50 μL/well. OD_{450 nm} values were read using an ELISA plate reader (Insight, purchased from PerkinElmer), and the competition rate between the antibodies was calculated according to the OD_{450 nm} values using a formula. The results are shown in FIGS. 12A-12B, the higher the value of the competition rate, the closer the epitopes to which two antibodies bind.

[2] = target: T3, human CD33-His (extracellular domain …); experiment: competitive ELISA vs coated C33B904 2ug/mL; soluble 25ug/ml
Method: as §1

[3] = target: T3, human CD33-His (extracellular domain …); experiment: competitive ELISA vs coated C33B904 3ug/mL; soluble 25ug/ml
[4] = target: T3, human CD33-His (extracellular domain …); experiment: competitive ELISA vs coated S006-NB146-132 2ug/mL; soluble 25ug/ml
Method: as §1

human CD33-his protein [5] = target: T4, human CD33-his protein (human, UniProt P20138 18-259); experiment: competition ELISA, coated human CD33-his, vs Biotin-C33B904 at EC80; antibody 500 nM
T4 construct: range 18-259; bought protein; also called hCD33-his; recombinant human CD33-his; not shown: His tag
Method: (§2) ELISA plates were coated with 2 μg/mL human CD33-his protein according to the method in Example 5.1; the Biotin-C331B904 antibody was subjected to a gradient dilution from 15 μg/mL, and EC80 values (0.18 μg/mL) were calculated. ELISA plates were coated with 2 μg/mL human CD33-his protein; starting from 40 μg/mL, the VHH antibodies to be tested were diluted in a 1:2 dilution ratio to obtain seven concentrations and added to the ELISA plates, and then Biotin-C331904 antibodies with the EC80 concentrations were added for incubation for 2 h. The plates were washed 5 times with PBS and then […] (purchased from Sigma, Cat. No. S2438) were added for incubation for 1 h, and the plates were washed 5 times. A TMB substrate was added at 50 μL/well and incubated at room temperature for 10 min, then a stop solution (1.0 M HCl) was added at 50 μL/well. OD_{450 nm} values were read using an ELISA plate reader (Insight, purchased from PerkinElmer). Then, analysis was performed by software (GraphPad Prism8), and data were fitted for curve plotting. The results are shown in FIGS. 13A-13B and Tables 28 and 29.

human CD33-his protein [6] = target: T4, human CD33-his protein; experiment: competition ELISA, coated human CD33-his, vs Biotin-C33B904 at EC80; antibody 1.95 nM
Method: as §2

human CD33-his protein [7] = target: T4, human CD33-his protein; experiment: as above; remark: listed apart in the source
Method: (§3) The plate was sealed with a plastic film and incubated at 4° C. overnight, washed twice with PBS the next day, and a blocking solution [PBS+2% (w/w) BSA] was added for blocking at room temperature for 2 h. The blocking solution was discarded, and VHH-Fc antibody or negative control antibody serially diluted from 100 nM was added at 50 μL/well. After incubation at 37° C. for 2 h, the plate was washed 3 times with PBS. A secondary antibody labeled with HRP (horseradish peroxidase) (purchased from Sigma, Cat. No. A0170) was added. After incubation for 1 h at 37° C., the plate was washed 5 times with PBS. A TMB substrate was added at 50 μL/well. After incubation at room temperature for 10 min, a stop solution (1.0 N HCl) was added at 50 μL/well. The OD450 nm values were read on an ELISA plate reader (Multimode Plate Reader, EnSight, purchased from Perkin Elmer). The assay results for the binding of the VHH-Fc to hCD33-his by ELISA are shown in FIGS. 7A and 7B and Tables 11 and 12. […] The IgG control was hIgG1, and the data in the table are OD450 nm values.
(§4) ELISA plates were coated with 2 μg/mL human CD33-his protein according to the method in Example 5.1; the Biotin-C331B904 antibody was subjected to a gradient dilution from 15 μg/mL, and EC80 values (0.18 μg/mL) were calculated. […] OD_{450 nm} values were read using an ELISA plate reader (Insight, purchased from PerkinElmer). […]

human CD33-his protein [8] = target: T4, human CD33-his protein; experiment: competition ELISA, coated human CD33-his, vs Biotin-C33B904 at EC80; antibody 7.81 nM
Method: as §3, §4

human CD33-his protein [9] = target: T4, human CD33-his protein; experiment: competition ELISA, coated human CD33-his, vs Biotin-C33B904 at EC80; antibody 125.00 nM
Method: as §3, §4

T4 sequence (P20138 18-259 limits assumed): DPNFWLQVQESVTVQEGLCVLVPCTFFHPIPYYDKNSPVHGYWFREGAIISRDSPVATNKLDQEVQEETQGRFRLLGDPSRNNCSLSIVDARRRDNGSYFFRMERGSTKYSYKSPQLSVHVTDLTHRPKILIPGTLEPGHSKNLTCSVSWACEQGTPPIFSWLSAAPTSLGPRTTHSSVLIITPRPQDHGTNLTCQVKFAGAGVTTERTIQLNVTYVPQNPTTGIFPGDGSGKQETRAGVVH
T3 sequence (P20138 18-259 limits assumed): as above
T2 sequence (P20138 other isoform, or with tags, fused parts or gaps limits assumed): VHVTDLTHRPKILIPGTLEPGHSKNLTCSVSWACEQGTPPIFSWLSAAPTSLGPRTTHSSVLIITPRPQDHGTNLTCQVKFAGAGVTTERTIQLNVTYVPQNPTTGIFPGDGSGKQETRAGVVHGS

| Binder | EC50 (read off the curve) (monkey CD33-His protein) [nM] | EC50 (read off the curve) (human CD33-C2-his) [nM] | inhibition rate [1] [%] | inhibition rate [2] [%] | inhibition rate [3] [%] | inhibition rate [4] [%] | OD450 (Biotin-C33B904 signal) (human CD33-his protein [5]) | OD450 (Biotin-C33B904 signal) (human CD33-his protein [6]) | OD450 (Biotin-C33B904 signal) (human CD33-his protein [7]) | OD450 (Biotin-C33B904 signal) (human CD33-his protein [8]) | OD450 (Biotin-C33B904 signal) (human CD33-his protein [9]) |
| --- | --- | --- | --- | --- | --- | --- | --- | --- | --- | --- | --- |
| B1 | ~0.1 | ~0.2 | 17 | 88 | 86 | 98 | – | – | – | – | – |
| B2 | – | – | – | – | – | – | 0.08 | 2.02 | 2.43 | 1.72 | 0.16 |
